# Reference: patent US20180044434A1 (PUBLIC UNIVERSITY CORPORATION YOKOHAMA CITY UNIVERSITY, published 2018)
# Changes are numbered by the printed parent chain.
# B1: A11 (antibody, V domains shown)
# VH: AVTLDESGGGLQTPGGALSLVCKASGFDFSSYGMGWMRQAPGKGLEYVAAIRNDGSWTGYGAAVKGHATISRDNGQSTVRLQLNNLRAEDTGTYYCAKTTGSRGGSIDAWGHGTEVIVS
# VL: ASTQPSSVSANLGGTVEITCSGGGRYYYGWYQQKSPGSAPVTVIYANDKRPSDIPSRFSGSKSGSTGTLTITGVQAEDEAVYFCGSAETSSYVFGAGTTLTVL
# notes: Chicken variable regions in a mouse chimeric antibody (IgG1); also called anti-PAD4 antibody A11
# B2: E9 (antibody, V domains shown)
# VH: B1 VH with A17T, A24G, D28T, A62S, H67R, G92A, T100S, R103S, I107V
# VL: B1 VL
# notes: Chicken variable regions in a mouse chimeric antibody (IgG1); also called anti-PAD4 antibody E9
# B3: G9 (antibody, V domains shown)
# VH: B1 VH with D28T, S31T, G33A, H67R, S71L, N84S, T99Y, R103S, D108G
# VL: B1 VL with S2V, S6A
# notes: Chicken variable regions in a mouse chimeric antibody (IgG1); also called anti-PAD4 antibody G9
# B4: G6 (antibody, V domains shown)
# VH: B1 VH with D28T, G35E, M37V, H67R, N74D, V79L, G92A, R103S
# VL: B1 VL with G14E, E17K, R25N, V43L, D53N, S86T, E88D, S90G, S91K
# notes: Chicken variable regions in a mouse chimeric antibody (IgG1); also called anti-PAD4 antibody G6
# Target: T1, Ala mutant of TA0096, SEQ ID NO: 34
# T1 peptide: EENMDDQAMQDEMEIGY
# Experiment: ELISA, alanine scan (position 347)
# Description: (§1) The epitope of each of A11 etc. was identified by alanine scan. Specifically, the following procedures (i) to (iii) were carried out. (i) Each amino acid residue of the antigen sequence (SEQ ID NO: 1) was replaced by another amino acid one by one, and 17 different Ala mutants (SEQ ID Nos: 27 to 43) were synthesized. (ii) The reactivity of each of the Ala mutants toward a test antibody was evaluated (ELISA).
# The “96 pAb” designated in the table refers to antiserum as obtained by immunizing a chicken with TA0096 (SEQ ID NO: 1). The 96 pAb, which is an anti-PAD4 polyclonal antibody, can substantially keep the affinity toward PAD4 even if any of single amino acids of PAD4 is replaced.
row,Binder,binding result
1,B1,no binding
2,B2,no binding
3,B3,no binding
4,B4,no binding

# Target: T2, full-length recombinant mouse PAD4 (mouse, UniProt Q9Z183 1-666)
# T2 construct: mature; Full-length recombinant
# Experiment: ELISA, coated mouse PAD4; antibody 0.015625 ug/mL
# T2 sequence (Q9Z183 whole entry): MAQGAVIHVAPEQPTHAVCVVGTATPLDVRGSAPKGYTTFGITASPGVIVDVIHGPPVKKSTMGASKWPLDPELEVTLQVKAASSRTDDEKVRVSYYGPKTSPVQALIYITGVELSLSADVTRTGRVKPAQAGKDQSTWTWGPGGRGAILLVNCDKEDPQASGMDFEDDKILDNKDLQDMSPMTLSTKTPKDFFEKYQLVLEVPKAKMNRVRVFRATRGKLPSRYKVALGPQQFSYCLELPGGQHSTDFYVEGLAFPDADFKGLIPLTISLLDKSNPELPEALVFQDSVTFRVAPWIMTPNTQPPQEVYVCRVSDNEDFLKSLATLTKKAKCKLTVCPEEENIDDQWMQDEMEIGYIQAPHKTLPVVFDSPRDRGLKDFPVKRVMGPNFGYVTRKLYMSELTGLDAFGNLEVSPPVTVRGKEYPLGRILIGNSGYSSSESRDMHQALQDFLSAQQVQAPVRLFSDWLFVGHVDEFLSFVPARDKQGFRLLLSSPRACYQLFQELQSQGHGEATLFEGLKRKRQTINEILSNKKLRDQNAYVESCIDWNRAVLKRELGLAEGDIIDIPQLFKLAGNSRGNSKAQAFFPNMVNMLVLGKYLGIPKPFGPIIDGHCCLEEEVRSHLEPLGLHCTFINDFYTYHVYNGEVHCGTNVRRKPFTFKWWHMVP
row,Binder,OD 490/630 nm
1,B1,2.02
2,B2,1.86
3,B3,2.21
4,B4,1.35

# Target: T2, full-length recombinant mouse PAD4
# Experiment: ELISA, coated mouse PAD4; antibody 0.0002441 ug/mL
row,Binder,OD 490/630 nm
1,B1,0.152
2,B2,0.122
3,B3,0.181
4,B4,0.071

# Target: T2, full-length recombinant mouse PAD4
# Experiment: ELISA, coated mouse PAD4; antibody 0.0039063 ug/mL
row,Binder,OD 490/630 nm
1,B1,1.07
2,B2,0.956
3,B3,1.39
4,B4,0.55

# Target: full-length recombinant human or mouse PAD4 (species used for Table 7 and FIG. 7 not stated)
# Experiment: cell-based or functional assay
row,Binder,Relative citrullination activity
1,B1,64 relative to PBS = 100
2,B2,59 relative to PBS = 100
3,B3,68 relative to PBS = 100
4,B4,69 relative to PBS = 100

# Target: T3, Ala mutant having 3-amino acid substitution, SEQ ID NO: 45
# T3 peptide: EENAAAQWMQDEMEIGY
# Experiment: ELISA, 3-amino acid Ala mutants
# Description: as §1
# Note that, as additional experiments, 6 different Ala mutants having 3-amino acid substitution (SEQ ID NOs: 44 to 49) were likewise examined in the experiments.
row,Binder,binding result
1,B1,no binding
2,B2,no binding
3,B3,no binding
4,B4,no binding

# Target: T4, full-length recombinant human PAD4 (human, UniProt Q9UM07 1-663)
# T4 construct: Full-length recombinant; also called peptidylarginine deiminase 4
# Experiment: ELISA, coated human PAD4; antibody 0.0002441 ug/mL
# T4 sequence (Q9UM07 whole entry): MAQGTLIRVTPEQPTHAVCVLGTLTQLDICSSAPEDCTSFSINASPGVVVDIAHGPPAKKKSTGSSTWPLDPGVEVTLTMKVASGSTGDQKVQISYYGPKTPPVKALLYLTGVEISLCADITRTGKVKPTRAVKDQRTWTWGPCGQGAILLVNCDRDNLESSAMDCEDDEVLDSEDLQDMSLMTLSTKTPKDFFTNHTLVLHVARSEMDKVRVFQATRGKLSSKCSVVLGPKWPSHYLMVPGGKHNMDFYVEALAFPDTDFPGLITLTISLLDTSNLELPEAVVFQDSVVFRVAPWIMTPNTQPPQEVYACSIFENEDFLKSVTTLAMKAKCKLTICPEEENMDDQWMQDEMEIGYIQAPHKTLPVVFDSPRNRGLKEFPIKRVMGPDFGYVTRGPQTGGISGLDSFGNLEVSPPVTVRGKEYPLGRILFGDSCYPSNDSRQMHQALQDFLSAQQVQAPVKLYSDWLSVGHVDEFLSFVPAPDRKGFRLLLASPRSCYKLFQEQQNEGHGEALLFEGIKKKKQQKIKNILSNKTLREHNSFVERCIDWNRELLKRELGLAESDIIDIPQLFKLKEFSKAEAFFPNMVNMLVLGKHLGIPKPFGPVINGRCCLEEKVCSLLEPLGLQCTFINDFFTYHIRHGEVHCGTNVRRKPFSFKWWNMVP
row,Binder,OD 490/630 nm
1,B1,0.206
2,B2,0.176
3,B3,0.187
4,B4,0.166

# Target: T5, Ala mutant of TA0096, SEQ ID NO: 40
# T5 peptide: EENMDDQWMQDEMAIGY
# Experiment: ELISA, coated peptide
row,Binder,OD 490/630 nm
1,B1,1.85
2,B2,1.82
3,B3,1.88
4,B4,1.86

# Target: T6, Ala mutant of TA0096, SEQ ID NO: 35
# T6 peptide: EENMDDQWAQDEMEIGY
# Experiment: ELISA, coated peptide
row,Binder,OD 490/630 nm
1,B1,0.023
2,B2,0.017
3,B3,0.253
4,B4,0.015

# Target: T7, Ala mutant of TA0096, SEQ ID NO: 29
# T7 peptide: EEAMDDQWMQDEMEIGY
# Experiment: ELISA, coated peptide
row,Binder,OD 490/630 nm
1,B1,2.05
2,B2,1.92
3,B3,1.94
4,B4,1.95

# Target: T8, Ala mutant of TA0096, SEQ ID NO: 37
# T8 peptide: EENMDDQWMQAEMEIGY
# Experiment: ELISA, coated peptide
row,Binder,OD 490/630 nm
1,B1,1.8
2,B2,1.2
3,B3,1.88
4,B4,1.85

# Target: T9, Ala mutant of TA0096, SEQ ID NO: 30
# T9 peptide: EENADDQWMQDEMEIGY
# Experiment: ELISA, coated peptide
row,Binder,OD 490/630 nm
1,B1,2.03
2,B2,1.91
3,B3,2.03
4,B4,1.92

# Target: T10, Ala mutant of TA0096, SEQ ID NO: 42
# T10 peptide: EENMDDQWMQDEMEIAY
# Experiment: ELISA, coated peptide
row,Binder,OD 490/630 nm
1,B1,1.88
2,B2,1.83
3,B3,1.85
4,B4,1.87

# Target: T11, TA0096 (peptide antigen corresponding to positions 340 to 356 of PAD4)
# T11 peptide: EENMDDQWMQDEMEIGY
# Experiment: ELISA, coated peptide
row,Binder,OD 490/630 nm
1,B1,1.81
2,B2,1.79
3,B3,1.85
4,B4,1.87

# Target: T12, Ala mutant of TA0096, SEQ ID NO: 39
# T12 peptide: EENMDDQWMQDEAEIGY
# Experiment: ELISA, coated peptide
row,Binder,OD 490/630 nm
1,B1,1.89
2,B2,1.77
3,B3,1.87
4,B4,1.83

# Target: T13, Ala mutant of TA0096, SEQ ID NO: 27
# T13 peptide: AENMDDQWMQDEMEIGY
# Experiment: ELISA, coated peptide
row,Binder,OD 490/630 nm
1,B1,1.95
2,B2,1.89
3,B3,1.93
4,B4,1.91

# Target: T14, Ala mutant having 3-amino acid substitution, SEQ ID NO: 44
# T14 peptide: AAAMDDQWMQDEMEIGY
# Experiment: ELISA, coated peptide
row,Binder,OD 490/630 nm
1,B1,1.98
2,B2,1.9
3,B3,1.92
4,B4,1.92

# Target: T15, Ala mutant of TA0096, SEQ ID NO: 43
# T15 peptide: EENMDDQWMQDEMEIGA
# Experiment: ELISA, coated peptide
row,Binder,OD 490/630 nm
1,B1,1.92
2,B2,1.88
3,B3,1.88
4,B4,1.87

# Target: T16, Ala mutant having 3-amino acid substitution, SEQ ID NO: 47
# T16 peptide: EENMDDQWMAAAMEIGY
# Experiment: ELISA, coated peptide
row,Binder,OD 490/630 nm
1,B1,1.25
2,B2,1.34
3,B3,1.85
4,B4,1.73

# Target: T1, Ala mutant of TA0096, SEQ ID NO: 34
# Experiment: ELISA, coated peptide
row,Binder,OD 490/630 nm
1,B1,0.021
2,B2,0.047
3,B3,0.038
4,B4,0.042

# Target: T17, Ala mutant having 3-amino acid substitution, SEQ ID NO: 49
# T17 peptide: EENMDDQWMQDEMEIAA
# Experiment: ELISA, coated peptide
row,Binder,OD 490/630 nm
1,B1,1.89
2,B2,1.85
3,B3,1.92
4,B4,1.88

# Target: T18, Ala mutant of TA0096, SEQ ID NO: 31
# T18 peptide: EENMADQWMQDEMEIGY
# Experiment: ELISA, coated peptide
row,Binder,OD 490/630 nm
1,B1,1.67
2,B2,1.38
3,B3,1.48
4,B4,1.77

# Target: T19, Ala mutant of TA0096, SEQ ID NO: 41
# T19 peptide: EENMDDQWMQDEMEAGY
# Experiment: ELISA, coated peptide
row,Binder,OD 490/630 nm
1,B1,1.85
2,B2,1.8
3,B3,1.89
4,B4,1.87

# Target: T4, full-length recombinant human PAD4
# Experiment: ELISA, coated human PAD4; antibody 0.25 ug/mL
row,Binder,OD 490/630 nm
1,B1,2.11
2,B2,2.08
3,B3,2.08
4,B4,2.07

# Target: T2, full-length recombinant mouse PAD4
# Experiment: ELISA, coated mouse PAD4; antibody 0.25 ug/mL
row,Binder,OD 490/630 nm
1,B1,2.25
2,B2,2.23
3,B3,2.25
4,B4,2.27

# Target: T2, full-length recombinant mouse PAD4
# Experiment: ELISA, coated mouse PAD4; antibody 0.0009766 ug/mL
row,Binder,OD 490/630 nm
1,B1,0.386
2,B2,0.416
3,B3,0.542
4,B4,0.2

# Target: T2, full-length recombinant mouse PAD4
# Experiment: ELISA, coated mouse PAD4; antibody 0.0625 ug/mL
row,Binder,OD 490/630 nm
1,B1,2.24
2,B2,2.19
3,B3,2.24
4,B4,2.16

# Target: T4, full-length recombinant human PAD4
# Experiment: ELISA, coated human PAD4; antibody 0.015625 ug/mL
row,Binder,OD 490/630 nm
1,B1,2.08
2,B2,2.08
3,B3,2.07
4,B4,2.01

# Target: T4, full-length recombinant human PAD4
# Experiment: ELISA, coated human PAD4; antibody 0.0625 ug/mL
row,Binder,OD 490/630 nm
1,B1,2.15
2,B2,2.12
3,B3,2.11
4,B4,2.12

# Target: T2, full-length recombinant mouse PAD4
# Experiment: ELISA, coated mouse PAD4; antibody 1 ug/mL
row,Binder,OD 490/630 nm
1,B1,2.24
2,B2,2.23
3,B3,2.3
4,B4,2.27
